Source: patent US20250218531A1 (ABSCI, published 2025)
Substitutions are numbered along the chain they refer to.

B1: Trastuzumab HCDR3 variant ARYGGGYYYMDY (Fab, V domains shown)
VH: EVQLVESGGGLVQPGGSLRLSCAASGFNIKDTYIHWVRQAPGKGLEWVARIYPTNGYTRYADSVKGRFTISADTSKNTAYLQMNSLRAEDTAVYYCARYGGGYYYMDYWGQGTLVTVSS
VL: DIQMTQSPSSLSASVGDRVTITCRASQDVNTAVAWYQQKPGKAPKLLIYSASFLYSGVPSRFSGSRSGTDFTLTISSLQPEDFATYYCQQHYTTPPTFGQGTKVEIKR
B2: Trastuzumab HCDR3 variant ARWGFSMYSFDY (Fab, V domains shown)
VH: B1 VH with Y99W, G101F, G102S, Y103M, Y105S, M106F
VL: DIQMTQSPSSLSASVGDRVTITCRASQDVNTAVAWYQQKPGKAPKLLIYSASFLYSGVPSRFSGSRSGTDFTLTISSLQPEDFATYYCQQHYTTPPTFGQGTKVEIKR
B3: Trastuzumab HCDR3 variant ARWGDYYYYMDY (Fab, V domains shown)
VH: B1 VH with Y99W, G101D, G102Y
VL: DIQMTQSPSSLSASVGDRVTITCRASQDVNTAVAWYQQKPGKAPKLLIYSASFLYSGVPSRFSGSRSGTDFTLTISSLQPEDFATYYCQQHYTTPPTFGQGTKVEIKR
B4: Trastuzumab HCDR3 variant ARYGGGFYAMDY (Fab, V domains shown)
VH: B1 VH with Y103F, Y105A
VL: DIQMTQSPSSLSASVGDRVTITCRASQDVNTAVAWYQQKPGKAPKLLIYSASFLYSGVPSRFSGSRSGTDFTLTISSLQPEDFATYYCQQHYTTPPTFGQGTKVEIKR
B5: Trastuzumab HCDR3 variant ARWGYDYYYFAY (Fab, V domains shown)
VH: B1 VH with Y99W, G101Y, G102D, M106F, D107A
VL: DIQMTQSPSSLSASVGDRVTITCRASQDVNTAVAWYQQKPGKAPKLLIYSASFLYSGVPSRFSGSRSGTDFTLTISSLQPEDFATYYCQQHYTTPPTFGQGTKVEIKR
B6: Trastuzumab HCDR3 variant ARWYGGYYHHDY (Fab, V domains shown)
VH: B1 VH with Y99W, G100Y, Y105H, M106H
VL: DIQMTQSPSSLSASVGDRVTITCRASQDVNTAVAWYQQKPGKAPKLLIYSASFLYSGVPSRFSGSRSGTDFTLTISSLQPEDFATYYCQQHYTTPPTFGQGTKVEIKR
B7: Trastuzumab HCDR3 variant ARWYGAYYHMDY (Fab, V domains shown)
VH: B1 VH with Y99W, G100Y, G102A, Y105H
VL: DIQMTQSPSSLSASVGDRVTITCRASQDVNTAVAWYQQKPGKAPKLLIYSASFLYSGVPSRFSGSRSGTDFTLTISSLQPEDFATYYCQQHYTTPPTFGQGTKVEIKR
B8: Trastuzumab HCDR3 variant ARWGNYYYYMDY (Fab, V domains shown)
VH: B1 VH with Y99W, G101N, G102Y
VL: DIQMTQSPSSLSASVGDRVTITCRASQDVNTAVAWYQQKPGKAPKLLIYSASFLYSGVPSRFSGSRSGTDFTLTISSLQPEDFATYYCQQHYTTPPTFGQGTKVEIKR
B9: Trastuzumab HCDR3 variant ARWQGGYYYWDF (Fab, V domains shown)
VH: B1 VH with Y99W, G100Q, M106W, Y108F
VL: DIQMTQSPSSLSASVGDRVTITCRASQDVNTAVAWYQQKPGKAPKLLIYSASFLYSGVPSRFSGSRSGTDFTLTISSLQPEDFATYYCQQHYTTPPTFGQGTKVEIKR
B10: Trastuzumab HCDR3 variant AKYSFGGYYYGD (Fab, V domains shown)
VH: B1 VH with R98K, G100S, G101F, Y103G, M106Y, D107G, Y108D
VL: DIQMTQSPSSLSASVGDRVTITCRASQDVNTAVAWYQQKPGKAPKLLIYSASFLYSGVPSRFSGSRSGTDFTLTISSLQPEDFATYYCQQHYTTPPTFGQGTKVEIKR
B11: Trastuzumab HCDR3 variant ARYDIGYYDMDK (Fab, V domains shown)
VH: B1 VH with G100D, G101I, Y105D, Y108K
VL: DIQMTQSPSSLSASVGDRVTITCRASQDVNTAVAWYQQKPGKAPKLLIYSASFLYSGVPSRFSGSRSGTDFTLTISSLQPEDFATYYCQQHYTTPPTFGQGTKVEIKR
B12: Trastuzumab HCDR3 variant ALYGNYSYGFAR (Fab, V domains shown)
VH: B1 VH with R98L, G101N, G102Y, Y103S, Y105G, M106F, D107A, Y108R
VL: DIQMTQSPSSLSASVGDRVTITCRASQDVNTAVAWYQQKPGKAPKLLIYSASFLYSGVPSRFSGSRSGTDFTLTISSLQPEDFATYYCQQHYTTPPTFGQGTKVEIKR
B13: Trastuzumab HCDR3 variant ARWAGDYYVMDY (Fab, V domains shown)
VH: B1 VH with Y99W, G100A, G102D, Y105V
VL: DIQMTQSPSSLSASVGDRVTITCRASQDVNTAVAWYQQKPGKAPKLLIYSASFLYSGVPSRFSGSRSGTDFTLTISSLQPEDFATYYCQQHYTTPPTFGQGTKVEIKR
B14: Trastuzumab HCDR3 variant ARWGYYYYYMDY (Fab, V domains shown)
VH: B1 VH with Y99W, G101Y, G102Y
VL: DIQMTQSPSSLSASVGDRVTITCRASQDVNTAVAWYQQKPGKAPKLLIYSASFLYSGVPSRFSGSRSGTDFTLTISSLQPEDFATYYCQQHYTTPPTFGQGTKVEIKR
B15: Trastuzumab HCDR3 variant ARFGSYYYYFDY (Fab, V domains shown)
VH: B1 VH with Y99F, G101S, G102Y, M106F
VL: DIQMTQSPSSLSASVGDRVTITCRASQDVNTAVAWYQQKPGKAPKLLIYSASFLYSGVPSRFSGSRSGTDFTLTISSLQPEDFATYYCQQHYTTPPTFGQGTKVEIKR
B16: Trastuzumab HCDR3 variant ARWGGDFYAMDY (Fab, V domains shown)
VH: B1 VH with Y99W, G102D, Y103F, Y105A
VL: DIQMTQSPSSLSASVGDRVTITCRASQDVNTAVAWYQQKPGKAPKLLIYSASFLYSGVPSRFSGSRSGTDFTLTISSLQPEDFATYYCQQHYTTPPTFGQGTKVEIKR
B17: Trastuzumab HCDR3 variant ARYGAYFYAMDA (Fab, V domains shown)
VH: B1 VH with G101A, G102Y, Y103F, Y105A, Y108A
VL: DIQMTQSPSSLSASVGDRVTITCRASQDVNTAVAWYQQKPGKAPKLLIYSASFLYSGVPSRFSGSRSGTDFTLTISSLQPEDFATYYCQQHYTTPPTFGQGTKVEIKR
B18: Trastuzumab HCDR3 variant ARWSYGYYNFDY (Fab, V domains shown)
VH: B1 VH with Y99W, G100S, G101Y, Y105N, M106F
VL: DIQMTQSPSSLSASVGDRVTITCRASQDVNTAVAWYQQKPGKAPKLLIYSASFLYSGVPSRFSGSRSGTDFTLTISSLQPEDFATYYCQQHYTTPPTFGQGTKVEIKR
B19: Trastuzumab HCDR3 variant AKYGDDNYGFSH (Fab, V domains shown)
VH: B1 VH with R98K, G101D, G102D, Y103N, Y105G, M106F, D107S, Y108H
VL: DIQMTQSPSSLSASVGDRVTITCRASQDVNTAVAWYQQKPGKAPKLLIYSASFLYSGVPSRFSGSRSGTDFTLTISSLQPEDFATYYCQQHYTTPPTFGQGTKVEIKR
B20: Trastuzumab HCDR3 variant ALYNYYYYAFGF (Fab, V domains shown)
VH: B1 VH with R98L, G100N, G101Y, G102Y, Y105A, M106F, D107G, Y108F
VL: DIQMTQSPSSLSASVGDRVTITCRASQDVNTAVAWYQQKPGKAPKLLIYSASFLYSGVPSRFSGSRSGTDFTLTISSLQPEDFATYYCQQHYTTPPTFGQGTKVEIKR
B21: Trastuzumab HCDR3 variant ARWGGNYYYMDY (Fab, V domains shown)
VH: B1 VH with Y99W, G102N
VL: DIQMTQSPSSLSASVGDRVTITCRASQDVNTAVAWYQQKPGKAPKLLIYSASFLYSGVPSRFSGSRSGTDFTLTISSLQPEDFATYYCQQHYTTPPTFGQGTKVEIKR
B22: Trastuzumab HCDR3 variant ARWGGYYYYMDY (Fab, V domains shown)
VH: B1 VH with Y99W, G102Y
VL: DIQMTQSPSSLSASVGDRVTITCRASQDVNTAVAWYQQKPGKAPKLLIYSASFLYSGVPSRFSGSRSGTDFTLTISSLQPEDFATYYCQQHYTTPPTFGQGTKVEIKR
B23: Trastuzumab HCDR3 variant ARYGRGYYYFDY (Fab, V domains shown)
VH: B1 VH with G101R, M106F
VL: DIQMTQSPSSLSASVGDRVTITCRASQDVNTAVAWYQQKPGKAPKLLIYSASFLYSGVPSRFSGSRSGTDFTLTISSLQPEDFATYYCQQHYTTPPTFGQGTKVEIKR
B24: Trastuzumab HCDR3 variant ARYGLGYYYFDY (Fab, V domains shown)
VH: B1 VH with G101L, M106F
VL: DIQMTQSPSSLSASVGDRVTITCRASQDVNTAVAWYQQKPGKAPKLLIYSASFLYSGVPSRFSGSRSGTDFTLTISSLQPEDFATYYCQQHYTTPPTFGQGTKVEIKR
B25: Trastuzumab HCDR3 variant ARYGLYYYYFDY (Fab, V domains shown)
VH: B1 VH with G101L, G102Y, M106F
VL: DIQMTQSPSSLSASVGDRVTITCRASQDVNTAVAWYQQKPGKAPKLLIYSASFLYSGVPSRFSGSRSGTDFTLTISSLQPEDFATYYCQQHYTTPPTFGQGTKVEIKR
B26: Trastuzumab HCDR3 variant ARYFGGSYAYVY (Fab, V domains shown)
VH: B1 VH with G100F, Y103S, Y105A, M106Y, D107V
VL: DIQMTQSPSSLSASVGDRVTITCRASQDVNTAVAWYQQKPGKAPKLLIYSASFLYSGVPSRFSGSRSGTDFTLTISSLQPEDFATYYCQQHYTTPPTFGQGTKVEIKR
B27: Trastuzumab HCDR3 variant AKYGSNYYYLGS (Fab, V domains shown)
VH: B1 VH with R98K, G101S, G102N, M106L, D107G, Y108S
VL: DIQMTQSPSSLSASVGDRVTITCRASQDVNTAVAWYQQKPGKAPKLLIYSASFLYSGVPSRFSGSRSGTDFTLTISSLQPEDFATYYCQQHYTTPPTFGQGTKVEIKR
B28: Trastuzumab HCDR3 variant ARWFYDYYYMDY (Fab, V domains shown)
VH: B1 VH with Y99W, G100F, G101Y, G102D
VL: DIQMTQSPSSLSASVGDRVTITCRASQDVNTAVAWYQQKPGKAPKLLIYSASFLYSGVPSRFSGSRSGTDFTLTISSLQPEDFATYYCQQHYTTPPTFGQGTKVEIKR
B29: Trastuzumab HCDR3 variant ARWYYDYYYMDY (Fab, V domains shown)
VH: B1 VH with Y99W, G100Y, G101Y, G102D
VL: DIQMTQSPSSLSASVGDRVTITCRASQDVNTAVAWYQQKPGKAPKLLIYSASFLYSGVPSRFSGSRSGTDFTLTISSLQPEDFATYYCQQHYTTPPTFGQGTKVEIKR
B30: Trastuzumab HCDR3 variant ARWGGYYYYFDV (Fab, V domains shown)
VH: B1 VH with Y99W, G102Y, M106F, Y108V
VL: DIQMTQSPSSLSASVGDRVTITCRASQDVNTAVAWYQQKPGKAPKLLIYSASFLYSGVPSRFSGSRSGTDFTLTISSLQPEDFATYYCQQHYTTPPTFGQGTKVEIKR
B31: Trastuzumab HCDR3 variant ARWYGGYYMYDY (Fab, V domains shown)
VH: B1 VH with Y99W, G100Y, Y105M, M106Y
VL: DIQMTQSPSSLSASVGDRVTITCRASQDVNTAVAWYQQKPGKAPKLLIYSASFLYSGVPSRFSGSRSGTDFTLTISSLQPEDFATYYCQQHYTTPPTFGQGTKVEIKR
B32: Trastuzumab HCDR3 variant ARWLAYWYAMDY (Fab, V domains shown)
VH: B1 VH with Y99W, G100L, G101A, G102Y, Y103W, Y105A
VL: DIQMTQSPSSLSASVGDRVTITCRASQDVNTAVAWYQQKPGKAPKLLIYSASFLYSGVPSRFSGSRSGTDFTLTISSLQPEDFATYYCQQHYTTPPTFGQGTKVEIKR
B33: Trastuzumab HCDR3 variant ARYGGYYYYMDY (Fab, V domains shown)
VH: B1 VH with G102Y
VL: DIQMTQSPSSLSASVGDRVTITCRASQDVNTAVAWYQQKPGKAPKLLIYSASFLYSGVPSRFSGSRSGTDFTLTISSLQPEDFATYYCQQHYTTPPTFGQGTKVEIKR
B34: Trastuzumab HCDR3 variant ARFGNSGYQFDY (Fab, V domains shown)
VH: B1 VH with Y99F, G101N, G102S, Y103G, Y105Q, M106F
VL: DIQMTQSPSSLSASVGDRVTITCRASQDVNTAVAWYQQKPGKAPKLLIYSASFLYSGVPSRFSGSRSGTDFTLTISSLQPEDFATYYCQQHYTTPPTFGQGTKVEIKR
B35: Trastuzumab HCDR3 variant ARWGYGYYYFDY (Fab, V domains shown)
VH: B1 VH with Y99W, G101Y, M106F
VL: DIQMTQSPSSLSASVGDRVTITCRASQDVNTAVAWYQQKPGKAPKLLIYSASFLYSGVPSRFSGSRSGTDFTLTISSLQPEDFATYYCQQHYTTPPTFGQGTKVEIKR
B36: Trastuzumab HCDR3 variant ARYGSYNYYFGD (Fab, V domains shown)
VH: B1 VH with G101S, G102Y, Y103N, M106F, D107G, Y108D
VL: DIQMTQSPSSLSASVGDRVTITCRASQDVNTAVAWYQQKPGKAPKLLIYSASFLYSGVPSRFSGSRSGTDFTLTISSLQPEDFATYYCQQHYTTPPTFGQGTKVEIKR
B37: Trastuzumab HCDR3 variant ARYGLGYYYMDY (Fab, V domains shown)
VH: B1 VH with G101L
VL: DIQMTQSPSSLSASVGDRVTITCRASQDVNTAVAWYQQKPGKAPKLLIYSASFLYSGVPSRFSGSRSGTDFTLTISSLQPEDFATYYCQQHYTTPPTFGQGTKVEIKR
B38: Trastuzumab HCDR3 variant ARWFGGYYHMDY (Fab, V domains shown)
VH: B1 VH with Y99W, G100F, Y105H
VL: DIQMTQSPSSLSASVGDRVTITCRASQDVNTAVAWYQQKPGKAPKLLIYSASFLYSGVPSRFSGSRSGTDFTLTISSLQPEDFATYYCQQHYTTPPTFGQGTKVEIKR
B39: Trastuzumab HCDR3 variant ARWYGYYYYFDV (Fab, V domains shown)
VH: B1 VH with Y99W, G100Y, G102Y, M106F, Y108V
VL: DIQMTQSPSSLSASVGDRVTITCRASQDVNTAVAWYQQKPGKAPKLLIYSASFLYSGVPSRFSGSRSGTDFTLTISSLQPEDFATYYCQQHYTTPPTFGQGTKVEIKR
B40: Trastuzumab HCDR3 variant ARYGGGYWYFDY (Fab, V domains shown)
VH: B1 VH with Y104W, M106F
VL: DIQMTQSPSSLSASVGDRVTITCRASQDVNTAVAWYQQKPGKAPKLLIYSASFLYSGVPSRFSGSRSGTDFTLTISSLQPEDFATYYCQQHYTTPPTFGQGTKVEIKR
B41: Trastuzumab HCDR3 variant ARFGGYYYYFDY (Fab, V domains shown)
VH: B1 VH with Y99F, G102Y, M106F
VL: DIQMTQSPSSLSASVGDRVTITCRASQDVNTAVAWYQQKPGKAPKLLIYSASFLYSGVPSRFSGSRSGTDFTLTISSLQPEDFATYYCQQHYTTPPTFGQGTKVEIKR
B42: Trastuzumab HCDR3 variant ARYGSYFYYMDY (Fab, V domains shown)
VH: B1 VH with G101S, G102Y, Y103F
VL: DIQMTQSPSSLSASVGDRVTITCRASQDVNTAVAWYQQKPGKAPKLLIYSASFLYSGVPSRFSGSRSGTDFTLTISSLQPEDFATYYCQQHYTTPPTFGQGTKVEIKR
B43: Trastuzumab HCDR3 variant ARYGGFYYYFDY (Fab, V domains shown)
VH: B1 VH with G102F, M106F
VL: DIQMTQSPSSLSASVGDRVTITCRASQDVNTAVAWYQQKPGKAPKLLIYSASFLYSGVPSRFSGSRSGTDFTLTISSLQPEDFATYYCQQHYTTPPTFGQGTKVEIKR
B44: Trastuzumab HCDR3 variant ARYGGGYYYYDY (Fab, V domains shown)
VH: B1 VH with M106Y
VL: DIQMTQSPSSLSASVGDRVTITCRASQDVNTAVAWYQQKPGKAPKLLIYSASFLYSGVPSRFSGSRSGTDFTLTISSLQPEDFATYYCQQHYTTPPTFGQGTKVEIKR
B45: Trastuzumab HCDR3 variant ARWPGGYYHMDY (Fab, V domains shown)
VH: B1 VH with Y99W, G100P, Y105H
VL: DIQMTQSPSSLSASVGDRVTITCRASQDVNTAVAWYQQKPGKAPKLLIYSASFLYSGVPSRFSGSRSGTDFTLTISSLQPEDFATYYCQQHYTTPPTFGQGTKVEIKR
B46: Trastuzumab HCDR3 variant ARWGSGYYYMDY (Fab, V domains shown)
VH: B1 VH with Y99W, G101S
VL: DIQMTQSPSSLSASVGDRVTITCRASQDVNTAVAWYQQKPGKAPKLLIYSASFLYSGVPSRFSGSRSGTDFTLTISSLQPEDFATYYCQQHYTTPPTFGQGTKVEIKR
B47: Trastuzumab HCDR3 variant ALWGFGWYYFDY (Fab, V domains shown)
VH: B1 VH with R98L, Y99W, G101F, Y103W, M106F
VL: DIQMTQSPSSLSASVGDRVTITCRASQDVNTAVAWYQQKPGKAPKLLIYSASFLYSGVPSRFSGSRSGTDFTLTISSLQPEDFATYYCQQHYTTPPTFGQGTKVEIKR
B48: Trastuzumab HCDR3 variant ARWGDGYYYMDY (Fab, V domains shown)
VH: B1 VH with Y99W, G101D
VL: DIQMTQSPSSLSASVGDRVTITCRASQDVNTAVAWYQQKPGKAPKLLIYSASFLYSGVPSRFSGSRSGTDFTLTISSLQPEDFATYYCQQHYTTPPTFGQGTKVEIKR
B49: Trastuzumab HCDR3 variant ARYDYGYYIYVS (Fab, V domains shown)
VH: B1 VH with G100D, G101Y, Y105I, M106Y, D107V, Y108S
VL: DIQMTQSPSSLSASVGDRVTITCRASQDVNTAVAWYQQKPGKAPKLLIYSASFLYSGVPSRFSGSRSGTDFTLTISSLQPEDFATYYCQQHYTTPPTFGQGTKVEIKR
B50: Trastuzumab HCDR3 variant ARWGGYYYYFDY (Fab, V domains shown)
VH: B1 VH with Y99W, G102Y, M106F
VL: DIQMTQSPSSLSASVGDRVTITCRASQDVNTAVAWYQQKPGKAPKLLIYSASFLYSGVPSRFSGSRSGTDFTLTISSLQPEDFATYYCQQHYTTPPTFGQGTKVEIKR
B51: Trastuzumab HCDR3 variant AIYSDGAYFYGR (Fab, V domains shown)
VH: B1 VH with R98I, G100S, G101D, Y103A, Y105F, M106Y, D107G, Y108R
VL: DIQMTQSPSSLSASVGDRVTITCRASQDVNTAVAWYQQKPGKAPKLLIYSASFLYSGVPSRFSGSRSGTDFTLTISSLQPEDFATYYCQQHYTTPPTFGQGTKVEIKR
B52: Trastuzumab HCDR3 variant ARWGYYYYAMDY (Fab, V domains shown)
VH: B1 VH with Y99W, G101Y, G102Y, Y105A
VL: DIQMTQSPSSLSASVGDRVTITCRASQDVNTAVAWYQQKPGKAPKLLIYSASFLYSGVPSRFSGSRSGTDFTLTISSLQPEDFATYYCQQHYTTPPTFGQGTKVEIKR
B53: Trastuzumab HCDR3 variant ARWSSGYYYMDY (Fab, V domains shown)
VH: B1 VH with Y99W, G100S, G101S
VL: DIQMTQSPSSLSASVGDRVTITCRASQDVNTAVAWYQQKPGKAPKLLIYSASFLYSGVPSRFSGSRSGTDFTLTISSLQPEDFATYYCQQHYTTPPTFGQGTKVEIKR
B54: Trastuzumab HCDR3 variant AAYTNTFYYLVY (Fab, V domains shown)
VH: B1 VH with R98A, G100T, G101N, G102T, Y103F, M106L, D107V
VL: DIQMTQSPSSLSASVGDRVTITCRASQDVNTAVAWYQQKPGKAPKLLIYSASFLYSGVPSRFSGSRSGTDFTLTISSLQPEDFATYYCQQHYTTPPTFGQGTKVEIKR

Biological target: T1, HER2 (human epidermal growth factor receptor 2) (human, UniProt P04626 23-629)
T1 construct: also called Antigen: HER2
Experiment: SPR

| Binder | Kd | log(KD (M)) |
| --- | --- | --- |
| B1 | 13.3 nM | -7.88 |
| B2 | 7.5 nM | -8.12 |
| B3 | 2.36 nM | -8.63 |
| B4 | 22.4 nM | -7.65 |
| B5 | 26.5 nM | -7.58 |
| B6 | 8.57 nM | -8.07 |
| B7 | 5.59 nM | -8.25 |
| B8 | 1.69 nM | -8.77 |
| B9 | 13.8 nM | -7.86 |
| B10 | 19.1 nM | -7.72 |
| B11 | 27 nM | -7.57 |
| B12 | 12.6 nM | -7.9 |
| B13 | 7.68 nM | -8.11 |
| B14 | 2.28 nM | -8.64 |
| B15 | 13 nM | -7.89 |
| B16 | 9.49 nM | -8.02 |
| B17 | 18.6 nM | -7.73 |
| B18 | 1.98 nM | -8.7 |
| B19 | 15.4 nM | -7.81 |
| B20 | 20.6 nM | -7.69 |
| B21 | 4.22 nM | -8.37 |
| B22 | 3.62 nM | -8.44 |
| B23 | 26.8 nM | -7.57 |
| B24 | 15.7 nM | -7.8 |
| B25 | 15.5 nM | -7.81 |
| B26 | 11.2 nM | -7.95 |
| B27 | 18.7 nM | -7.73 |

| Binder | Kd | log(KD (M)) |
| --- | --- | --- |
| B28 | 12.6 nM | -7.9 |
| B29 | 13.9 nM | -7.86 |
| B30 | 13 nM | -7.89 |
| B31 | 19.1 nM | -7.72 |
| B32 | 3.55 nM | -8.45 |
| B33 | 16.3 nM | -7.79 |
| B34 | 10.5 nM | -7.98 |
| B35 | 25.2 nM | -7.6 |
| B36 | 13.6 nM | -7.87 |
| B37 | 10.5 nM | -7.98 |
| B38 | 8.52 nM | -8.07 |
| B39 | 11.2 nM | -7.95 |
| B40 | 23.4 nM | -7.63 |
| B41 | 23.5 nM | -7.63 |
| B42 | 6.53 nM | -8.19 |
| B43 | 6.17 nM | -8.21 |
| B44 | 9.11 nM | -8.04 |
| B45 | 8.49 nM | -8.07 |
| B46 | 4.46 nM | -8.35 |
| B47 | 5.31 nM | -8.28 |
| B48 | 5.57 nM | -8.25 |
| B49 | 9.49 nM | -8.02 |
| B50 | 12.8 nM | -7.89 |
| B51 | 10.6 nM | -7.98 |
| B52 | 22.6 nM | -7.65 |
| B53 | 12 nM | -7.92 |
| B54 | 19.8 nM | -7.7 |
